# Results as given in US20160289284.
# Tested on: ZF6-DBD (AAV8-CMV delivered) (artificial (designed))
# Test: cell_activity
# Settings: pig retina, rhodopsin transcript by qRT-PCR, 15 days after AAV8 injection
substance,measurement,value
porcine RHO proximal promoter / TSS region,activity,45 % repression
